Experimental data taken from patent publication US20040009898A1 (UNIVERSITY OF IOWA RESEARCH FOUNDATION, published 2004).
No end group written: not given here.

Target: urokinase plasminogen activator receptor (uPAR) on differentiated human airway epithelia (human, UniProt Q03405 23-305, GPI-linked)
Experiment: cell-based or functional assay

urokinase plasminogen activator receptor (uPAR) on differentiated human airway epithelia, sequence (Q03405 23-305): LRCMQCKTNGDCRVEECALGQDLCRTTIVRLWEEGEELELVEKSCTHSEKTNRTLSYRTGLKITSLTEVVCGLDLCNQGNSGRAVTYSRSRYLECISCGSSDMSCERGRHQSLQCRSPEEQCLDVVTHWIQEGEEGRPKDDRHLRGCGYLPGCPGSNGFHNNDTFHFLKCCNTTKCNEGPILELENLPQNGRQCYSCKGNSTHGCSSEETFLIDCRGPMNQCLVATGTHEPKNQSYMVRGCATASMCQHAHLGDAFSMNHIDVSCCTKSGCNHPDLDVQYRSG

B1: u7-peptide coupled through PEG to the capsid of adenovirus Ad2/βgal-4 (other)
peptide: CLNGGTC
modifications: not fully specified; also: coupled through bifunctional PEG to adenovirus capsid, terminal Cys with free sulfhydryl used for coupling
gene transfer (β-galactosidase) to human airway epithelia: 10 fold
